# Source: patent publication US20240270846A1 (published 2024)
# Changes are numbered by the printed parent chain. Names may count otherwise.
# B1: CE115HA000/GLS3000 G89N one-arm antibody (antibody, human IgG1, kappa, L234A L235A, N297A, name in Kabat numbering)
# heavy: QVQLVESGGGVVQPGRSLRLSCAASGFTFSNAWMHWVRQAPGKGLEWVAQIKAKSNNYATYYAESVKGRFTISRDDSKNSLYLQMNSLKTEDTAVYYCRYVHYGAYYGVDAWGQGTTVTVSSASTKGPSVFPLAPSSKSTSGGTAALGCLVKDYFPEPVTVSWNSGALTSGVHTFPAVLQSSGLYSLSSVVTVPSSSLGTQTYICNVNHKPSNTKVDKKVEPKSCDKTHTCPPCPAPEAAGGPSVFLFPPKPKDTLMISRTPEVTCVVVDVSHEDPEVKFNWYVDGVEVHNAKTKPREEQYASTYRVVSVLTVLHQDWLNGKEYKCKVSNKALPAPIEKTISKAKGQPREPQVYTLPPSRCELTKNQVSLSCAVKGFYPSDIAVEWESNGQPENNYKTTPPVLDSDGSFFLVSKLTVDKSRWQQGNVFSCSVMHEALHNHYTQKSLSLSPDYKDDDDK
# chain: EPKSSDKTHTCPPCPAPELLGGPSVFLFPPKPKDTLMISRTPEVTCVVVDVSHEDPEVKFNWYVDGVEVHNAKTKPREEQYNSTYRVVSVLTVLHQDWLNGKEYKCKVSNKALPAPIEKTISKAKGQPREPQVCTLPPSRDELTKNQVSLWCLVKGFYPSDIAVEWESNGQPENNYKTTPPVLDSDGSFFLYSKLTVDKSRWQQGNVFSCSVMHEALHNRYTQKSLSLSP
# light: DIVMTQSPLSLPVTPGEPASISCRSSQSLVHSNRNTYLHWYQQKPGQAPRLLIYKVSNRFSGVPDRFSGSGSGTDFTLKISRVEAEDVGVYYCNQGTQVPYTFGQGTKLEIKRTVAAPSVFIFPPSDEQLKSGTASVVCLLNNFYPREAKVQWKVDNALQSGNSQESVTEQDSKDSTYSLSSTLTLSKADYEKHKVYACEVTHQGLSSPVTKSFNRGEC
# notes: one-arm IgG1
# B2: CE115HA000/GLS3000 H34M one-arm antibody (antibody, human IgG1, kappa, L234A L235A, N297A, name in Kabat numbering)
# heavy: B1 heavy
# chain: B1 chain
# light: B1 light with H39M, N94G
# notes: one-arm IgG1
# B3: CE115HA000/GLS3000 L33F one-arm antibody (antibody, human IgG1, kappa, L234A L235A, N297A, name in Kabat numbering)
# heavy: B1 heavy
# chain: B1 chain
# light: B1 light with L38F, N94G
# notes: one-arm IgG1
# B4: CE115HA000/GLS3000 K50P one-arm antibody (antibody, human IgG1, kappa, L234A L235A, N297A, name in Kabat numbering)
# heavy: B1 heavy
# chain: B1 chain
# light: B1 light with K55P, N94G
# notes: one-arm IgG1
# B5: CE115HA000/GLS3000 K50R one-arm antibody (antibody, human IgG1, kappa, L234A L235A, N297A, name in Kabat numbering)
# heavy: B1 heavy
# chain: B1 chain
# light: B1 light with K55R, N94G
# notes: one-arm IgG1
# B6: CE115HA000/GLS3000 H34G one-arm antibody (antibody, human IgG1, kappa, L234A L235A, N297A, name in Kabat numbering)
# heavy: B1 heavy
# chain: B1 chain
# light: B1 light with H39G, N94G
# notes: one-arm IgG1
# B7: CE115HA000/GLS3000 H34D one-arm antibody (antibody, human IgG1, kappa, L234A L235A, N297A, name in Kabat numbering)
# heavy: B1 heavy
# chain: B1 chain
# light: B1 light with H39D, N94G
# notes: one-arm IgG1
# B8: CE115HA000/GLS3000 L33I one-arm antibody (antibody, human IgG1, kappa, L234A L235A, N297A, name in Kabat numbering)
# heavy: B1 heavy
# chain: B1 chain
# light: B1 light with L38I, N94G
# notes: one-arm IgG1
# B9: CE115HA000/GLS3000 L33E one-arm antibody (antibody, human IgG1, kappa, L234A L235A, N297A, name in Kabat numbering)
# heavy: B1 heavy
# chain: B1 chain
# light: B1 light with L38E, N94G
# notes: one-arm IgG1
# B10: CE115HA000/GLS3000 H34F one-arm antibody (antibody, human IgG1, kappa, L234A L235A, N297A, name in Kabat numbering)
# heavy: B1 heavy
# chain: B1 chain
# light: B1 light with H39F, N94G
# notes: one-arm IgG1
# B11: CE115HA000/GLS3000 K50D one-arm antibody (antibody, human IgG1, kappa, L234A L235A, N297A, name in Kabat numbering)
# heavy: B1 heavy
# chain: B1 chain
# light: B1 light with K55D, N94G
# notes: one-arm IgG1
# B12: CE115HA000/GLS3000 G91E one-arm antibody (antibody, human IgG1, kappa, L234A L235A, N297A, name in Kabat numbering)
# heavy: B1 heavy
# chain: B1 chain
# light: B1 light with N94G, G96E
# notes: one-arm IgG1
# B13: CE115HA000/GLS3000 K50S one-arm antibody (antibody, human IgG1, kappa, L234A L235A, N297A, name in Kabat numbering)
# heavy: B1 heavy
# chain: B1 chain
# light: B1 light with K55S, N94G
# notes: one-arm IgG1
# B14: CE115HA000/GLS3000 H34N one-arm antibody (antibody, human IgG1, kappa, L234A L235A, N297A, name in Kabat numbering)
# heavy: B1 heavy
# chain: B1 chain
# light: B1 light with H39N, N94G
# notes: one-arm IgG1
# B15: CE115HA000/GLS3000 K50T one-arm antibody (antibody, human IgG1, kappa, L234A L235A, N297A, name in Kabat numbering)
# heavy: B1 heavy
# chain: B1 chain
# light: B1 light with K55T, N94G
# notes: one-arm IgG1
# B16: CE115HA000/GLS3000 K50E one-arm antibody (antibody, human IgG1, kappa, L234A L235A, N297A, name in Kabat numbering)
# heavy: B1 heavy
# chain: B1 chain
# light: B1 light with K55E, N94G
# notes: one-arm IgG1
# B17: CE115HA000/GLS3000 H34T one-arm antibody (antibody, human IgG1, kappa, L234A L235A, N297A, name in Kabat numbering)
# heavy: B1 heavy
# chain: B1 chain
# light: B1 light with H39T, N94G
# notes: one-arm IgG1
# B18: CE115HA000/GLS3000 H34Y one-arm antibody (antibody, human IgG1, kappa, L234A L235A, N297A, name in Kabat numbering)
# heavy: B1 heavy
# chain: B1 chain
# light: B1 light with H39Y, N94G
# notes: one-arm IgG1
# B19: CE115HA000/GLS3000 H34W one-arm antibody (antibody, human IgG1, kappa, L234A L235A, N297A, name in Kabat numbering)
# heavy: B1 heavy
# chain: B1 chain
# light: B1 light with H39W, N94G
# notes: one-arm IgG1
# B20: CE115HA000/GLS3000 H34K one-arm antibody (antibody, human IgG1, kappa, L234A L235A, N297A, name in Kabat numbering)
# heavy: B1 heavy
# chain: B1 chain
# light: B1 light with H39K, N94G
# notes: one-arm IgG1
# B21: CE115HA000/GLS3000 G91A one-arm antibody (antibody, human IgG1, kappa, L234A L235A, N297A, name in Kabat numbering)
# heavy: B1 heavy
# chain: B1 chain
# light: B1 light with N94G, G96A
# notes: one-arm IgG1
# B22: CE115HA000/GLS3000 H34E one-arm antibody (antibody, human IgG1, kappa, L234A L235A, N297A, name in Kabat numbering)
# heavy: B1 heavy
# chain: B1 chain
# light: B1 light with H39E, N94G
# notes: one-arm IgG1
# B23: CE115HA000/GLS3000 H34P one-arm antibody (antibody, human IgG1, kappa, L234A L235A, N297A, name in Kabat numbering)
# heavy: B1 heavy
# chain: B1 chain
# light: B1 light with H39P, N94G
# notes: one-arm IgG1
# B24: CE115HA000/GLS3000 K50Q one-arm antibody (antibody, human IgG1, kappa, L234A L235A, N297A, name in Kabat numbering)
# heavy: B1 heavy
# chain: B1 chain
# light: B1 light with K55Q, N94G
# notes: one-arm IgG1
# B25: CE115HA000/GLS3000 K107E one-arm antibody (antibody, human IgG1, kappa, L234A L235A, N297A, name in Kabat numbering)
# heavy: B1 heavy
# chain: B1 chain
# light: B1 light with N94G, K112E
# notes: one-arm IgG1
# B26: CE115HA000/GLS3000 L33D one-arm antibody (antibody, human IgG1, kappa, L234A L235A, N297A, name in Kabat numbering)
# heavy: B1 heavy
# chain: B1 chain
# light: B1 light with L38D, N94G
# notes: one-arm IgG1
# B27: CE115HA000/GLS3000 H34Q one-arm antibody (antibody, human IgG1, kappa, L234A L235A, N297A, name in Kabat numbering)
# heavy: B1 heavy
# chain: B1 chain
# light: B1 light with H39Q, N94G
# notes: one-arm IgG1
# B28: CE115HA000/GLS3000 K50G one-arm antibody (antibody, human IgG1, kappa, L234A L235A, N297A, name in Kabat numbering)
# heavy: B1 heavy
# chain: B1 chain
# light: B1 light with K55G, N94G
# notes: one-arm IgG1
# B29: CE115HA000/GLS3000 H34I one-arm antibody (antibody, human IgG1, kappa, L234A L235A, N297A, name in Kabat numbering)
# heavy: B1 heavy
# chain: B1 chain
# light: B1 light with H39I, N94G
# notes: one-arm IgG1
# B30: CE115HA000/GLS3000 H34L one-arm antibody (antibody, human IgG1, kappa, L234A L235A, N297A, name in Kabat numbering)
# heavy: B1 heavy
# chain: B1 chain
# light: B1 light with H39L, N94G
# notes: one-arm IgG1
# B31: CE115HA000/GLS3000 K50L one-arm antibody (antibody, human IgG1, kappa, L234A L235A, N297A, name in Kabat numbering)
# heavy: B1 heavy
# chain: B1 chain
# light: B1 light with K55L, N94G
# notes: one-arm IgG1
# B32: CE115HA000/GLS3000 H34V one-arm antibody (antibody, human IgG1, kappa, L234A L235A, N297A, name in Kabat numbering)
# heavy: B1 heavy
# chain: B1 chain
# light: B1 light with H39V, N94G
# notes: one-arm IgG1
# B33: CE115HA000/GLS3000 K50Y one-arm antibody (antibody, human IgG1, kappa, L234A L235A, N297A, name in Kabat numbering)
# heavy: B1 heavy
# chain: B1 chain
# light: B1 light with K55Y, N94G
# notes: one-arm IgG1
# B34: CE115HA000/GLS3000 G91D one-arm antibody (antibody, human IgG1, kappa, L234A L235A, N297A, name in Kabat numbering)
# heavy: B1 heavy
# chain: B1 chain
# light: B1 light with N94G, G96D
# notes: one-arm IgG1
# B35: CE115HA000/GLS3000 H34S one-arm antibody (antibody, human IgG1, kappa, L234A L235A, N297A, name in Kabat numbering)
# heavy: B1 heavy
# chain: B1 chain
# light: B1 light with H39S, N94G
# notes: one-arm IgG1
# Biological target: T1, CD3 epsilon homodimer protein (UniProt P07766 23-126)
# T1 construct: also called CD3 (CD3 epsilon)
# T1 sequence (P07766 23-126): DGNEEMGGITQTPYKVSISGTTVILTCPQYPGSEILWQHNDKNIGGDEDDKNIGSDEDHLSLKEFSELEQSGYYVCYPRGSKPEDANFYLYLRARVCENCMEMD
# Assay: SPR (Biacore T200), CD3e homodimer on CM4 chip, antibody as analyte; KD ratio vs unaltered GLS3000;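 also: CD3 epsilon homodimer amine-coupled to the sensor surface, antibodies injected as analyte at 25 °C with HBS-EP+ running buffer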
row,Binder,KD ratio to GLS3000 [ratio]
1,B1,1.2
2,B2,3.16
3,B3,0.65
4,B4,27.7
5,B5,1.83
6,B6,1.08
7,B7,2100
8,B8,0.86
9,B9,0.83
10,B10,3.5
11,B11,114
12,B12,48.5
13,B13,45.3
14,B14,2.84
15,B15,25.1
16,B16,57.2
17,B17,1.1
18,B18,2.44

row,Binder,KD ratio to GLS3000 [ratio]
1,B19,8.45
2,B20,4.1
3,B21,28.1
4,B22,8.03
5,B23,1.22
6,B24,8.13
7,B25,0.95
8,B26,37.5
9,B27,4.6
10,B28,42.4
11,B29,0.89
12,B30,1.03
13,B31,36.4
14,B32,1.04
15,B33,195
16,B34,44.8
17,B35,1.24
